From US20090312245A1, “SRA binding protein” (The University of Western Australia, priority 2005, published 2009)

How the values were obtained:
estrogen receptor (ER) = test: ERE-Luc (E2-responsive) reporter transfection assay in HeLa cells; type: cell-based, human
Method: HeLa cells were transfected using FuGENE6 (Roche) with equal molar ratios of control and plasmid DNA: 50 ng/well ER(α); 0.6 μg/well ERE-Luc, GRE-Luc, TRE-Luc, ARE-Luc, VDRE-Luc; 0.0625 μg/well pSCT or 0.08 μg/well pSCT-SRA/pSCT-SRA-SDM7a; 0.049 μg/well pCMV-FLAG-7.1 or […] FLAG-SLIRP/FLAG-SLIRP-R24/FLAG-SLIRP-L62/FLAG-SLIRP-DM; 0.3 μg/well pCMX or 0.5 μg/well pCMX-SHARP; 100 ng/well pCGN or 100 ng/well pCGN-SKIP. After transfection, cells were cultured in complete medium for 24 h, prior to the addition of E2 (10 nM), Dex (10 nM), T3 (1 nM), DHT (10 nM), VitD (100 nM), 4-hydroxytamoxifen (Tam, 1 nM), ICI182780 (ICI, 1 nM) or equal volume of vehicle (absolute ethanol or water). After 8 h, lysates were assayed for luciferase activity relative to protein levels using Luciferase (Promega) and Protein Assay (BioRad) on a FluorStar Optima (BMG).

SRA STR7 = test: REMSA with 32P-labeled SRA STR7 probe and recombinant proteins; type: binding, human; conditions: in the presence of heparin and RNase T1
Excerpt: The yeast three-hybrid SLIRP cDNA clone containing the coding region and 3′ UTR, was amplified with specific primers SLIRP (sense) 5′ cgc gga tcc gcg gcc tca gca gca 3′, SLIRP (reverse) 5′ gcg cgg atc cta ggc tgc agt ctca 3′, and subcloned into BamHI cut pCMV-FLAG 7.1 for transfection assays and pGEX-6P2 for GST-fusion protein experiments. STR7 primers (sense) 5′ agg agg cag gta tgt gat gac atc agc cga cgc ctg gca ctg ctg cag gaa cag tgg gct gga gga aag ttg tca ata cct gta aag aa 3′ and (reverse) 5′ ttc ttt aca ggt aft gac aac ttt cct cca gcc cac tgt tcc tgc agc agt gcc agg cgt cgg ctg atg tca tca cat acc tgc ttc ct 3′ were annealed and cloned into EcoRV-digested pBluescript II KS+ to generate labeled riboprobes. To generate the SRA mutant SDM7, the underlined residues above were mutated to tcc, ctc and ctc as outlined previously (19). pBluescript vectors were linearized with EcoRV for transcription with T7 or T3 RNA polymerase (Invitrogen) in reactions containing [^32P]UTP (Amersham Biosciences) or unlabeled UTP, as described (16), to produce riboprobes with a specific activity of ˜2×10^9 cpm/μg RNA. Constructs for expressing mutant forms of SLIRP (R24, 25A and L62A) were prepared by PCR-based mutagenesis. Each of the mutant coding domains was subcloned into BamH1-cut pCMV-FLAG 7.1 and pGEX-6P2 as above. […]

## SHARP: SMRT/HDAC1 associated repressor protein, SRA corepressor, transfected expression vector [reference compound]
Estrogen receptor (ER); cotransfected with SRA
  repression of SRA-mediated coactivation of E2-responsive reporter: repressed SRA-mediated coactivation

B1: SKIP: coregulator, coactivator of ER transactivation, transfected expression vector (protein, UniProt Q13573 2-536, looked up)
SNW domain-containing protein …: ALTSFLPAPTQLSQDQLEAEEKARSQRSRQTSLVSSRREPPPYGYRKGWIPRLLEDFGDGGAFPEIHVAQYPLDMGRKKKMSNALAIQVDSEGKIKYDAIARQGQSKDKVIYSKYTDLVPKEVMNADDPDLQRPDEEAIKEITEKTRVALEKSVSQKVAAAMPVRAADKLAPAQYIRYTPSQQGVAFNSGAKQRVIRMVEMQKDPMEPPRFKINKKIPRGPPSPPAPVMHSPSRKMTVKEQQEWKIPPCISNWKNAKGYTIPLDKRLAADGRGLQTVHINENFAKLAEALYIADRKAREAVEMRAQVERKMAQKEKEKHEEKLREMAQKARERRAGIKTHVEKEDGEARERDEIRHDRRKERQHDRNLSRAAPDKRSKLQRNENRDISEVIALGVPNPRTSNEVQYDQRLFNQSKGMDSGFAGGEDEIYNVYDQAWRGGKDMAQSIYRPSKNLDKDMYGDDLEARIKTNRFVPDKEFSGSDRRQRGREGPVQFEEDPFGLDKFLEEAKQHGGSKRPSDSSRPKEHEHEGKKRRKE
Estrogen receptor (ER); SKIP with cotransfected SRA
  total increase in reporter activity: ~6 fold
Estrogen receptor (ER); transfected SKIP alone
  increase of reporter activity: ~2 fold

B2: GST-SHARP-RRM: GST-SHARP fusion protein containing the three RRM domains (SHARP aas 1-608) (protein, UniProt Q96T58 1-608, looked up, fragment)
chain: MVRETRHLWVGNLPENVREEKIIEHFKRYGRVESVKILPKRGSEGGVAAFVDFVDIKSAQKAHNSVNKMGDRDLRTDYNEPGTIPSAARGLDDTVSIASRSREVSGFRGGGGGPAYGPPPSLHAREGRYERRLDGASDNRERAYEHSAYGHHERGTGGFDRTRHYDQDYYRDPRERTLQHGLYYASRSRSPNRFDAHDPRYEPRAREQFTLPSVVHRDIYRDDITREVRGRRPERNYQHSRSRSPHSSQSRNQSPQRLASQASRPTRSPSGSGSRSRSSSSDSISSSSSTSSDSSDSSSSSSDDSPARSVQSAAVPAPTSQLLSSLEKDEPRKSFGIKVQNLPVRSTDTSLKDGLFHEFKKFGKVTSVQIHGTSEERYGLVFFRQQEDQEKALTASKGKLFFGMQIEVTAWIGPETESENEFRPLDERIDEFHPKATRTLFIGNLEKTTTYHDLRNIFQRFGEIVDIDIKKVNGVPQYAFLQYCDIASVCKAIKKMDGEYLGNNRLKLGFGKSMPTNCVWLDGLSSNVSDQYLTRHFCRYGPVVKVVFDRLKGMALVLYNEIEYAQAAVKETKGRKIGGNKIKVDFANRESQLAFYHCMEKSGQDIRD
modifications: GST fusion
SRA STR7
  binding to SRA STR7 probe: bound STR7 avidly
